Results taken from patent US20140329228A1 (Ushio Denki Kabushiki Kaisha, priority 2011, published 2014).

Key:
Format in all cases: binding
[1] = Fluorescence enhancement of fluoro-labeled Fab complex with MDA; conditions: antigen MDA 100 μg/mL versus absence of antigen
[2] = Fluorescence enhancement of fluoro-labeled Fab complex with amphetamine; conditions: antigen Amphetamine 100 μg/mL versus absence of antigen
[3] = Fluorescence enhancement of fluoro-labeled Fab complex / scFv with morphine; conditions: antigen Morphine 100 μg/mL versus absence of antigen
[4] = Fluorescence enhancement of fluoro-labeled Fab complex with MDMA; conditions: antigen MDMA 100 μg/mL versus absence of antigen
[5] = Fluorescence enhancement of fluoro-labeled Fab complex / scFv with ketamine; conditions: antigen Ketamine 100 μg/mL versus absence of antigen
[6] = Fluorescence enhancement of fluoro-labeled Fab complex / scFv with methamphetamine; conditions: antigen Methamphetamine 100 μg/mL versus absence of antigen
[7] = Fluorescence enhancement of fluoro-labeled Fab complex / scFv with cocaine; conditions: antigen Cocaine 100 μg/mL versus absence of antigen

B1: Anti-Methamphetamine: same-color double-label Fab complex of anti-methamphetamine antibody; TAMRA-labeled VL (SEQ ID NO: 25) and VH (SEQ ID NO: 26) (antibody, V domains shown)
VH: QVQLQQSGPELVKPGASVKVSCKASGYPSTRFYIYWVKQSHGKSLEWIGNIDPYNGGTTYNQKFKGKATLTIDKSSTTAYVHLNSLTSEDSAVYYCAGFHYSGQLDTDVWGAGTKVTVSS
VL: DIVMTQSPAFMSASPGEKVTLTCSASSSVSSTFLYWYQQKPGSSPKLWIYSTSNLASGVPSRFSGSGSGTSYSLTINSMEAEDAASYFCHQWSNYPFTFGSGTKLEIKR
modifications: Fab; TAMRA labels; Meth-VH-26; Meth-VL-25
Fluorescence enhancement in the presence of 100 μg/mL antigen [1]: 5.6 | Fluorescence enhancement in the presence of 100 μg/mL antigen [2]: 6.8 | Fluorescence enhancement in the presence of 100 μg/mL antigen [3]: 0.9 | Fluorescence enhancement in the presence of 100 μg/mL antigen [4]: 7.2 | Fluorescence enhancement in the presence of 100 μg/mL antigen [5]: 1.0 | Fluorescence enhancement in the presence of 100 μg/mL antigen [6]: 7.2 | Fluorescence enhancement in the presence of 100 μg/mL antigen [7]: 1.0
